T1: RrXyl43A (Rhizophlyctis rosea, UniProt A0A2U8LMQ1)
T1 construct: full-length 325 residues, no native signal peptide; codon-optimized in pPICZalphaA with alpha-factor signal, His-tagged, Pichia pastoris KM71H; theoretical 39 kDa with tag; active as monomer; not N-glycosylated
T1 sequence (A0A2U8LMQ1 1-325): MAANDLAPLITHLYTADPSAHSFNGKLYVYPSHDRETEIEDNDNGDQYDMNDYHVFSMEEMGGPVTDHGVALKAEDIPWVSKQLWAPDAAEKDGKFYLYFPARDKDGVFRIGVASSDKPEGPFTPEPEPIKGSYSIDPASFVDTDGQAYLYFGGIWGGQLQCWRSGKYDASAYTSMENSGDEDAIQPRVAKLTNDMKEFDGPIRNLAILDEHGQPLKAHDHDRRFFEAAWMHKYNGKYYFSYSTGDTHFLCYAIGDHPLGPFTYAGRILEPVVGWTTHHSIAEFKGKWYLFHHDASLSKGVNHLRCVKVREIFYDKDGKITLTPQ


Legend:
RrXyl43A = target: T1, RrXyl43A; assay: residual pNPX hydrolysis, absorbance […] nm; assay type: biochemical; conditions: read-out: % residual activity at 100 mM
purified protein = substrate: O=[N+]([O-])c1ccc(O[C@@H]2OC[C@@H](O)[C@H](O)[C@H]2O)cc1; assay: purified protein; assay type: biochemical, Rhizophlyctis rosea; conditions: McIlvaine buffer pH 7, 25 °C, 10 min

Row | Molecule | remaining activity at 100000 µM (RrXyl43A) [%] | Km (purified protein) [µM] | Vmax (purified protein) [µmol/min/mg] | kcat (purified protein) [s⁻¹]
1 | OC1OC[C@@H](O)[C@H](O)[C@H]1O (stereo partly shown) [xylose] | 51 | – | – | –
2 | RrXyl43A (Rhizophlyctis rosea) (protein, full-length 325 residues, no native signal peptide; codon-optimized in pPICZalphaA with alpha-factor signal, His-tagged, Pichia pastoris KM71H; theoretical 39 kDa with tag; active as monomer; not N-glycosylated) MAANDLAPLITHLYTADPSAHSFNGKLYVYPSHDRETEIEDNDNGDQYDMNDYHVFSMEEMGGPVTDHGVALKAEDIPWVSKQLWAPDAAEKDGKFYLYFPARDKDGVFRIGVASSDKPEGPFTPEPEPIKGSYSIDPASFVDTDGQAYLYFGGIWGGQLQCWRSGKYDASAYTSMENSGDEDAIQPRVAKLTNDMKEFDGPIRNLAILDEHGQPLKAHDHDRRFFEAAWMHKYNGKYYFSYSTGDTHFLCYAIGDHPLGPFTYAGRILEPVVGWTTHHSIAEFKGKWYLFHHDASLSKGVNHLRCVKVREIFYDKDGKITLTPQ | – | 1340 ± 170 | 34.6 | 21.2 ± 0.89
